Assay [1] concerns the target human 4-1BB (human) (UniProt Q07011). Put plainly: flow cytometry on CHO-K1 cells expressing 4-1BB. In general terms: Flow cytometry measures light scatter and fluorescence of single cells or particles in a stream.
Assay [2] has the same target. Put plainly: cell-based or functional assay.

Consider one substance from patent publication US20240317872A1.

Sequence of human 4-1BB (human) (Q07011 24-255): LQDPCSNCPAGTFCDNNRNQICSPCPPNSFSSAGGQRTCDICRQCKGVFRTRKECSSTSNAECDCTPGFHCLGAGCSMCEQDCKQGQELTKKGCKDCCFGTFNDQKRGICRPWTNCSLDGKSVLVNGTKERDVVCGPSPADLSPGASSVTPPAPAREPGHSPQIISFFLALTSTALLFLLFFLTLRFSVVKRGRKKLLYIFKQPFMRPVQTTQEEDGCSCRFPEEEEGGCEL

As for WBP342-BMK3.hIgG4 (antibody), in the assay with human 4-1BB (human) [1], the EC50 worked out at 0.123 nM and the Top (MFI) worked out at 1120 MFI. In the assay with human 4-1BB (human) [2], the reporter gene assay (NFkB luciferase), EC50 was 0.33 nM and the reporter gene assay (NFkB luciferase), Top (RLU) was found to be 1.09e+06 RLU.

In general, EC50 refers to the concentration needed to bring the measured effect to its halfway point. High values mean a less potent agent, low ones a more potent agent.
